# Test results: patent publication US20140065150A1 (AGGAMIN PHARMACEUTICALS, published 2014)
# B1: antibody 101 (antibody, V domains shown)
# VH: QVQLKQSGPGLVQPSQSLSLTCTVSGFSLTNYGVHWIRQSPGKGLEWLGVIWSGGSIDYNAVFTSRLTITKDHSKSQVFFKVNSLESNDTAIYYCARNVGYRYDDGYVMDYWGQGTSVIVSS
# VL: SIVMTQTPKFLLVSAGDRVTITCKASQSVSIDVAWYQQKPGQSPKLLIYHASNRYTGVPDRFIGSRYGTDFTFTISTVQAEDLAVYFCQQNYDSPFTFGSGTKLELKR
# notes: Mouse monoclonal antibody raised against human sFlt-1 (Ig-like domains 1-3)
# Target: T1, human sFlt-1 protein (Ig-like domains 1-3), amino acids Ser27 to Ile328, with carboxy-terminal poly-histidine … (human, UniProt P17948 27-328)
# T1 construct: range 27-328; also called sFlt-1 (domains 1-3); Recombinant sFlt1 (d1-d3)
# T1 sequence (P17948 27-328): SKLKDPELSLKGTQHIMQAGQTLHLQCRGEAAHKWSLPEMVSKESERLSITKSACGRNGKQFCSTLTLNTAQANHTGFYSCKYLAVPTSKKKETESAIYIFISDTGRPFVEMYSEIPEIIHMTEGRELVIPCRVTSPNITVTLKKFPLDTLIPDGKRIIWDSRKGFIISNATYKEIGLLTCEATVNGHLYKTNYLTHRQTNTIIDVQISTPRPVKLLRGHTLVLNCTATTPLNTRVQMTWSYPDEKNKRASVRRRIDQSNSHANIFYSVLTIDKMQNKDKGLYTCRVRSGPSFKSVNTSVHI
# Test: SPR (FIG. 2 legend: ForteBio Octet), antibody immobilized, sFlt-1 (domains 1-3) in the liquid phase; apparent Kd
# Method: The apparent Kd of binding between purified monoclonal antibodies and sFlt1 was measured by surface plasmon resonance (SPR). (FIG. 2B). Antibodies were immobilized on the solid phase and sFlt-1 (domains 1-3) was in the liquid phase. There was no direct correlation between antibody affinity (as measured in a kinetic binding experiment) (FIG. 2B) and effectiveness (FIG. 2A) in the device. There was also no direct correlation with on-rates or off-rates and device effectiveness.
binder,measurement,value
B1,Kd,1.44 nM
